# Reference: IntAct's records for PubMed 19129478
# B1: Neutrophil cytosol factor 1 (Homo sapiens), P14598 (parent)
# chain: MGDTFIRHIALLGFEKRFVPSQHYVYMFLVKWQDLSEKVVYRRFTEIYEFHKTLKEMFPIEAGAINPENRIIPHLPAPKWFDGQRAAENRQGTLTEYCSTLMSLPTKISRCPHLLDFFKVRPDDLKLPTDNQTKKPETYLMPKDGKSTATDITGPIILQTYRAIANYEKTSGSEMALSTGDVVEVVEKSESGWWFCQMKAKRGWIPASFLEPLDSPDETEDPEPNYAGEPYVAIKAYTAVEGDEVSLLEGEAVEVIHKLLDGWWVIRKDDVTGYFPSMYLQKSGQDVSQAQRQIKRGAPPRRSSIRNAHSIHQRSRKRLSQDAYRRNSVRFLQQRRRQARPGPQSPGSPLEEERQTQRSKPQPAVPPRPSADLILNRCSESTKRKLASAV
# Variants of: B1
# Conditions: with ncf2_human NCF2, P19878
# Sequence of ncf2_human NCF2, P19878 (P19878 whole entry): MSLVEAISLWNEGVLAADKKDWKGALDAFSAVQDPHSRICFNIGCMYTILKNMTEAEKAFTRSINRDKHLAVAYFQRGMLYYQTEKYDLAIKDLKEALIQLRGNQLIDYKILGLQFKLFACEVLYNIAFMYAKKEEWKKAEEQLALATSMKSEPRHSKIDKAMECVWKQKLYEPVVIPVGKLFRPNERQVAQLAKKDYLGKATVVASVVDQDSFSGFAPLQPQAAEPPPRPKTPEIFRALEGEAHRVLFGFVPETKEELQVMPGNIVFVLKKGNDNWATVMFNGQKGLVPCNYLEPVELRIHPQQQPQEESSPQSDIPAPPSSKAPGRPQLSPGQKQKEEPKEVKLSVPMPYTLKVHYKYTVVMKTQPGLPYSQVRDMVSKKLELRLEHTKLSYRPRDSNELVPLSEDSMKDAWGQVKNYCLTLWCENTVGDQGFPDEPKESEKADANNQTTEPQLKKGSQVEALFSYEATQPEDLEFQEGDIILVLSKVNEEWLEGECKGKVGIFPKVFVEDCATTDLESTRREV
row,Variant,effect of a mutation on the interaction
1,MGDTFIRHIALLGFEKRFVPSQHYVYMFLVKWQDLSEKVVYRRFTEIYEFHKTLKEMFPIEAGAINPENRIIPHLPAPKWFDGQRAAENRQGTLTEYCSTLMSLPTKISRCPHLLDFFKVRPDDLKLPTDNQTKKPETYLMPKDGKSTATDITGPIILQTYRAIANYEKTSGSEMALSTGDVVEVVEKSESGWWFCQMKAKRGWIPASFLEPLDSPDETEDPEPNYAGEPYVAIKAYTAVEGDEVSLLEGEAVEVIHKLLDGWWVIRKDDVTGYFPSMYLQKSGQDVSQAQRQIKRGAPPRRSSIRNAHSIHQRSRKRLSQDAYRRNSVRFLQQRRRQARPGPQSPGSPLEEERQTQRSKPQAAVPPRPSADLILNRCSESTKRKLASAV [P363A],decreasing interaction
2,MGDTFIRHIALLGFEKRFVPSQHYVYMFLVKWQDLSEKVVYRRFTEIYEFHKTLKEMFPIEAGAINPENRIIPHLPAPKWFDGQRAAENRQGTLTEYCSTLMSLPTKISRCPHLLDFFKVRPDDLKLPTDNQTKKPETYLMPKDGKSTATDITGPIILQTYRAIANYEKTSGSEMALSTGDVVEVVEKSESGWWFCQMKAKRGWIPASFLEPLDSPDETEDPEPNYAGEPYVAIKAYTAVEGDEVSLLEGEAVEVIHKLLDGWWVIRKDDVTGYFPSMYLQKSGQDVSQAQRQIKRGAPPRRSSIRNAHSIHQRSRKRLSQDAYRRNSVRFLQQRRRQARPGPQSPGSPLEEERQTQRSKPQPAVPPRPSADLILNRCSESTERKLASAV [K383E],decreasing interaction
3,MGDTFIRHIALLGFEKRFVPSQHYVYMFLVKWQDLSEKVVYRRFTEIYEFHKTLKEMFPIEAGAINPENRIIPHLPAPKWFDGQRAAENRQGTLTEYCSTLMSLPTKISRCPHLLDFFKVRPDDLKLPTDNQTKKPETYLMPKDGKSTATDITGPIILQTYRAIANYEKTSGSEMALSTGDVVEVVEKSESGWWFCQMKAKRGWIPASFLEPLDSPDETEDPEPNYAGEPYVAIKAYTAVEGDEVSLLEGEAVEVIHKLLDGWWVIRKDDVTGYFPSMYLQKSGQDVSQAQRQIKRGAPPRRSSIRNAHSIHQRSRKRLSQDAYRRNSVRFLQQRRRQARPGPQSPGSPLEEERQTQRSKPQPAVPPAPSADLILNRCSESTKRKLASAV [R368A],decreasing interaction

# The remaining lines, values ahead:
row,effect of a mutation on the interaction,Variant
1,disrupting interaction,MGDTFIRHIALLGFEKRFVPSQHYVYMFLVKWQDLSEKVVYRRFTEIYEFHKTLKEMFPIEAGAINPENRIIPHLPAPKWFDGQRAAENRQGTLTEYCSTLMSLPTKISRCPHLLDFFKVRPDDLKLPTDNQTKKPETYLMPKDGKSTATDITGPIILQTYRAIANYEKTSGSEMALSTGDVVEVVEKSESGWWFCQMKAKRGWIPASFLEPLDSPDETEDPEPNYAGEPYVAIKAYTAVEGDEVSLLEGEAVEVIHKLLDGWWVIRKDDVTGYFPSMYLQKSGQDVSQAQRQIKRGAPPRRSSIRNAHSIHQRSRKRLSQDAYRRNSVRFLQQRRRQARPGPQSPGSPLEEERQTQRSKPQPAVAPRPSADLILNRCSESTKRKLASAV [P366A]
2,decreasing interaction,MGDTFIRHIALLGFEKRFVPSQHYVYMFLVKWQDLSEKVVYRRFTEIYEFHKTLKEMFPIEAGAINPENRIIPHLPAPKWFDGQRAAENRQGTLTEYCSTLMSLPTKISRCPHLLDFFKVRPDDLKLPTDNQTKKPETYLMPKDGKSTATDITGPIILQTYRAIANYEKTSGSEMALSTGDVVEVVEKSESGWWFCQMKAKRGWIPASFLEPLDSPDETEDPEPNYAGEPYVAIKAYTAVEGDEVSLLEGEAVEVIHKLLDGWWVIRKDDVTGYFPSMYLQKSGQDVSQAQRQIKRGAPPRRSSIRNAHSIHQRSRKRLSQDAYRRNSVRFLQQRRRQARPGPQSPGSPLEEERQTQRSKPQPAVPPRPSADLILNRCSESTKRELASAV [K385E]
